Changes are numbered by the printed parent chain. In names and notes the source's numbering stands. Each block holds one binder with its values, some of them ahead of it.
Molecular target: T1, recombinant full-length human RAD51 (Bio Academia) (human, UniProt Q06609 1-339)
T1 construct: human RAD51 recombinase, recombinant full-length protein; also called hRAD51; source: bought: Bio Academia
T1 sequence (looked up): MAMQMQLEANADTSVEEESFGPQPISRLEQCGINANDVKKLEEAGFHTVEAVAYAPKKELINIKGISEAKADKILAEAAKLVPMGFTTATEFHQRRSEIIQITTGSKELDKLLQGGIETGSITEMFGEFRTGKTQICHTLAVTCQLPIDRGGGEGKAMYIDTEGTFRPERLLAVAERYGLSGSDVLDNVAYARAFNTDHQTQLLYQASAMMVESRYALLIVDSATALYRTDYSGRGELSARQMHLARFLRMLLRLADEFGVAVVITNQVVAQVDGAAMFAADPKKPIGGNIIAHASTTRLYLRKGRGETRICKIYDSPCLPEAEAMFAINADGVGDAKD
Assay: pull-down; 300 nM GST-fused peptides with 53.6 nM hRAD51 in 50 mM Tris pH 8.0, 150 mM NaCl, 1 mM EDTA, 1 mM DTT, 4°C, 1 h; captured on glutathione sepharose 4B; western blot with anti-RAD51
Conditions: both partners purified

binding result: binds
B1: GST-fused wild-type canine BRC3 (cBRC3) (aa 1410-1482) peptide (domain or fragment, UniProt Q8MKI9 1410-1482, looked up)
chain: GQNIKDFDTFYLSFQTASRKNIRVSKESLNKARSLLNQKWTEEELNNFSDSLNSELLPGIDIKKTDISNHEVI
notes: BRC repeat 3 region of canine BRCA2, aa 1410-1482; also called GST-cBRC3; wild-type cBRC3; source: Rosetta II cells (pGEX6p-1), purified (glutathione sepharose 4B)

binding result: binds
B2: GST-fused K1435R mutant canine BRC3 (aa 1410-1482) peptide (domain or fragment, UniProt Q8MKI9 1410-1482, looked up)
chain: B1 chain with K26R
notes: BRC repeat 3 region of canine BRCA2, aa 1410-1482, with the mammary tumor-derived mutation K1435R; Mutation reported from canine mammary tumor samples; also called K1435R mutant cBRC3; GST-cBRC3 with the K1435R mutation; source: Rosetta II cells (pGEX6p-1), purified (glutathione sepharose 4B)

— article PMC3470543, “Effects of the Missense Mutations in Canine BRCA2 on BRC Repeat 3 Functions and Comparative Analyses between Canine and Human BRC Repeat 3” (PLoS ONE, 2012)
